B1: G patch domain and ankyrin repeat-containing protein 1 (Homo sapiens), O95872 (parent)
chain: MSRPLLITFTPATDPSDLWKDGQQQPQPEKPESTLDGAAARAFYEALIGDESSAPDSQRSQTEPARERKRKKRRIMKAPAAEAVAEGASGRHGQGRSLEAEDKMTHRILRAAQEGDLPELRRLLEPHEAGGAGGNINARDAFWWTPLMCAARAGQGAAVSYLLGRGAAWVGVCELSGRDAAQLAEEAGFPEVARMVRESHGETRSPENRSPTPSLQYCENCDTHFQDSNHRTSTAHLLSLSQGPQPPNLPLGVPISSPGFKLLLRGGWEPGMGLGPRGEGRANPIPTVLKRDQEGLGYRSAPQPRVTHFPAWDTRAVAGRERPPRVATLSWREERRREEKDRAWERDLRTYMNLEF
partner: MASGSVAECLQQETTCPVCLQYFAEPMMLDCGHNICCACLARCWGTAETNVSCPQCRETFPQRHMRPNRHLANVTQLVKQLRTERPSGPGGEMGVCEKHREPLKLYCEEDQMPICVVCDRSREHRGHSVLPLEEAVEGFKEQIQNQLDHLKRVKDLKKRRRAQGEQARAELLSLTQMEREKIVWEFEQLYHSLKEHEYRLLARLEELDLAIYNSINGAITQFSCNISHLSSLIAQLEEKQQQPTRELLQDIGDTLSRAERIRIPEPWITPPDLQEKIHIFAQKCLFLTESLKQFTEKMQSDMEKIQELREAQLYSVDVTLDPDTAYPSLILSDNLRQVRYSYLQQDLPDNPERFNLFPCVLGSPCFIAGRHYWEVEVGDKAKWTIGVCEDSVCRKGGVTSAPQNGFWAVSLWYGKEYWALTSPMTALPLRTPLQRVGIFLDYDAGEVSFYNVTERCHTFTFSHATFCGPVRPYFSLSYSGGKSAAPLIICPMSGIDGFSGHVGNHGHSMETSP
B2: Uncharacterized protein C3orf62 (Homo sapiens), Q6ZUJ4 (parent)
chain: MHYIKTWSLLGEMSEKLRRCRKELTAAIDRAFEGVSYSQECTGQQRLELSAAPLSFSLPVHRLLCRRHPLAACSSAAPFAAVPCAPENENPAFATNHAPVNAKPHALCPERKPLTSKENVLMHSSILAPERESWRTAGEGENWRKENLRKDMERDLKADSNMPLNNSSQEVTKDLLDMIDHTSIRTIEELAGKIEFENELNHMCGHCQDSPFKEEAWALLMDKSPQKATDADPGSLKQAFDDHNIVETVLDLEEDYNVMTSFKYQIE
partner: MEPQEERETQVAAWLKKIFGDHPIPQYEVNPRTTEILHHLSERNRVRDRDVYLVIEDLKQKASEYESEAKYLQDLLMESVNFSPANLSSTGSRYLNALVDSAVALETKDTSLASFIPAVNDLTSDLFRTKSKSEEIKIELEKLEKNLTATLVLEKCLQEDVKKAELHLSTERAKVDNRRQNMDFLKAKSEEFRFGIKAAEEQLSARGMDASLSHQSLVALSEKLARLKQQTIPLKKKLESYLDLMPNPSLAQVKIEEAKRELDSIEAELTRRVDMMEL
B3: Tuftelin-interacting protein 11 (Homo sapiens), Q9UBB9 (parent)
chain: MSLSHLYRDGEGRIDDDDDERENFEITDWDLQNEFNPNRQRHWQTKEEATYGVWAERDSDDERPSFGGKRARDYSAPVNFISAGLKKGAAEEAELEDSDDEEKPVKQDDFPKDFGPRKLKTGGNFKPSQKGFAGGTKSFMDFGSWERHTKGIGQKLLQKMGYVPGRGLGKNAQGIINPIEAKQRKGKGAVGAYGSERTTQSMQDFPVVDSEEEAEEEFQKELSQWRKDPSGSKKKPKYSYKTVEELKAKGRISKKLTAPQKELSQVKVIDMTGREQKVYYSYSQISHKHNVPDDGLPLQSQQLPQSGKEAKAPGFALPELEHNLQLLIDLTEQEIIQNDRQLQYERDMVVNLFHELEKMTEVLDHEERVISNLSKVLEMVEECERRMQPDCSNPLTLDECARIFETLQDKYYEEYRMSDRVDLAVAIVYPLMKEYFKEWDPLKDCTYGTEIISKWKSLLENDQLLSHGGQDLSADAFHRLIWEVWMPFVRNIVTQWQPRNCDPMVDFLDSWVHIIPVWILDNILDQLIFPKLQKEVENWNPLTDTVPIHSWIHPWLPLMQARLEPLYSPIRSKLSSALQKWHPSDSSAKLILQPWKDVFTPGSWEAFMVKNIVPKLGMCLGELVINPHQQHMDAFYWVIDWEGMISVSSLVGLLEKHFFPKWLQVLCSWLSNSPNYEEITKWYLGWKSMFSDQVLAHPSVKDKFNEALDIMNRAVSSNVGAYMQPGARENIAYLTHTERRKDFQYEAMQERREAENMAQRGIGVAASSVPMNFKDLIETKAEEHNIVFMPVIGKRHEGKQLYTFGRIVIYIDRGVVFVQGEKTWVPTSLQSLIDMAK
partner: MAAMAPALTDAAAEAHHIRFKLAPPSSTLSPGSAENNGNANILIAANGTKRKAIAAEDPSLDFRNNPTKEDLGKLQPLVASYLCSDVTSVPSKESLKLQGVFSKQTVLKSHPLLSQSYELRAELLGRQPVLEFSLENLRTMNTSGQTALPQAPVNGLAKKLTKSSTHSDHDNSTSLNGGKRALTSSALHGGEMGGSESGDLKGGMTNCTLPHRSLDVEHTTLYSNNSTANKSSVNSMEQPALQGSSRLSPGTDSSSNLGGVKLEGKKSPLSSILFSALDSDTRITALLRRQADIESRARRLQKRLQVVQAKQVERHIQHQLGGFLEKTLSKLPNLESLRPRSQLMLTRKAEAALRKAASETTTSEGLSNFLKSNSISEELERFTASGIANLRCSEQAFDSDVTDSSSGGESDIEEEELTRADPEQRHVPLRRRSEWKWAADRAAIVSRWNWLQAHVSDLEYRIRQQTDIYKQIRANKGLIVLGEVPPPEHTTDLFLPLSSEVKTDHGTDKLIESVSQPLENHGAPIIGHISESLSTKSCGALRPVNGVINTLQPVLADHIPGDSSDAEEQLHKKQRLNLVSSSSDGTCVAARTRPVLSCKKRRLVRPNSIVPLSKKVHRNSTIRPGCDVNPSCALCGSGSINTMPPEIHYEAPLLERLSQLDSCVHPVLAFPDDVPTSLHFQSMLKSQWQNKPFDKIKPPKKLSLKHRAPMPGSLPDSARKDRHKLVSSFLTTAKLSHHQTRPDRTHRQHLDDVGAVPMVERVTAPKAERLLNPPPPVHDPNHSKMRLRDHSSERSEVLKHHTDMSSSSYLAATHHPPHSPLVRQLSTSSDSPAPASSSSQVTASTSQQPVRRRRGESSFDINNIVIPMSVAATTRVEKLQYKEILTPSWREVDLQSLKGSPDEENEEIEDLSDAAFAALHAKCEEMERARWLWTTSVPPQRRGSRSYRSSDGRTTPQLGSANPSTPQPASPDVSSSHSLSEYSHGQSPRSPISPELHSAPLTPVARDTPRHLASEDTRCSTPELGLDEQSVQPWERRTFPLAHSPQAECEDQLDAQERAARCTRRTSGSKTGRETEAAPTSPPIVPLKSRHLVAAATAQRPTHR
B4: Microtubule-associated tumor suppressor candidate 2 (Homo sapiens), Q5JR59-3 (parent)
chain: MGHCCCKPYNCLQCLDKTNESALVKEKELSIELANIRDEVAFHTAKCEKLQKEKEELERRFEDEVKRLGWQQQAELQELEERLQLQFEAEMARLQEEHGDQLLSIRCQHQEQVEDLTASHDAALLEMENNHTVAITILQDDHDHKVQELMSTHELEKKELEENFEKLRLSLQDQVDTLTFQSQSLRDRARRFEEALRKNTEEQLEIALAPYQHLEEDMKSLKQVLEMKNQQIHEQEKKILELEKLAEKNIILEEKIQVLQQQNEDLKARIDQNTVVTRQLSEENANLQEYVEKETQEKKRLSRTNEELLWKLQTGDPTSPIKLSPTSPVYRGSSSGPSSPARVSTTPR
partner: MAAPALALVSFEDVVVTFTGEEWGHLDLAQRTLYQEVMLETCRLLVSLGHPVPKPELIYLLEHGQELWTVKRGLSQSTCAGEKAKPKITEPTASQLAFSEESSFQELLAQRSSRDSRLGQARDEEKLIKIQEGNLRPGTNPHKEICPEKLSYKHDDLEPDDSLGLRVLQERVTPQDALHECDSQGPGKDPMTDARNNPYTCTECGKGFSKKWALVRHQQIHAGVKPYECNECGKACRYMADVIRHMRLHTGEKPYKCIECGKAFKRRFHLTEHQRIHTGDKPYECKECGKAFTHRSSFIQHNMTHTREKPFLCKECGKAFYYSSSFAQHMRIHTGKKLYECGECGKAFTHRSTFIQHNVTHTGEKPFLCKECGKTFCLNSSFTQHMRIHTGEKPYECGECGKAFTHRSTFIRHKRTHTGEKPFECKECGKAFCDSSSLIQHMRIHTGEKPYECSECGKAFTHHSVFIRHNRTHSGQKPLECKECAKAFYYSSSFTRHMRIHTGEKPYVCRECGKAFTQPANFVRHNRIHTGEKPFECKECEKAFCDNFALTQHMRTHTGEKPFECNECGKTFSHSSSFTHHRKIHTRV
B5: Interleukin-1 receptor-associated kinase 4 (Homo sapiens), Q9NWZ3 (parent)
chain: MNKPITPSTYVRCLNVGLIRKLSDFIDPQEGWKKLAVAIKKPSGDDRYNQFHIRRFEALLQTGKSPTSELLFDWGTTNCTVGDLVDLLIQNEFFAPASLLLPDAVPKTANTLPSKEAITVQQKQMPFCDKDRTLMTPVQNLEQSYMPPDSSSPENKSLEVSDTRFHSFSFYELKNVTNNFDERPISVGGNKMGEGGFGVVYKGYVNNTTVAVKKLAAMVDITTEELKQQFDQEIKVMAKCQHENLVELLGFSSDGDDLCLVYVYMPNGSLLDRLSCLDGTPPLSWHMRCKIAQGAANGINFLHENHHIHRDIKSANILLDEAFTAKISDFGLARASEKFAQTVMTSRIVGTTAYMAPEALRGEITPKSDIYSFGVVLLEIITGLPAVDEHREPQLLLDIKEEIEDEEKTIEDYIDKKMNDADSTSVEAMYSVASQCLHEKKNKRPDIKKVQQLLQEMTAS

One assay covers variants of B1. The note with it: with tri27_human TRIM27, P14373.
On to D56E, for which the “effect of a mutation on the interaction” value is reported as “disrupting interaction strength”.

A further assay covers variants of B2. The note with it: with haus1_human HAUS1, Q96CS2.
As to R66G, the “effect of a mutation on the interaction” value is on record as “with no effect”.

The variants in another assay derive from B3. The note with it: with kanl1_human KANSL1, Q7Z3B3.
In the case of R8Q, the “effect of a mutation on the interaction” value is given as “with no effect”.
Take S688L: the “effect of a mutation on the interaction” value is listed as “with no effect”.

Variants of B4 are the subject of a further assay. To be noted: with zn599_human ZNF599, Q96NL3.
A89V: the “effect of a mutation on the interaction” value is on record as “with no effect”.

The next assay covers variants of B5. The note with it: with myd88_human MYD88, Q99836.
myd88_human MYD88, Q99836, sequence (Q99836 whole entry): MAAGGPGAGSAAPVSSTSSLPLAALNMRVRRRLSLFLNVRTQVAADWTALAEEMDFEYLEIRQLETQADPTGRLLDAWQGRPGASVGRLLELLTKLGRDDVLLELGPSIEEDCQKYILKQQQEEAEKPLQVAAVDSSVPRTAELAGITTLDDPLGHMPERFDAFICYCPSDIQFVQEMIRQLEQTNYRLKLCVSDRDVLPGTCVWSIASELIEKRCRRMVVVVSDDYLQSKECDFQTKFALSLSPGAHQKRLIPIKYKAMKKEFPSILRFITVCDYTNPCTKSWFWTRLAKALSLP
For the variant G298D, the “effect of a mutation on the interaction” value was “disrupting interaction strength”.

The values above are taken from IntAct's records for PubMed 31515488.
